For orientation: stoichiometry N means a count of units in the complex or per binding partner.

From article PMC6008203 come the findings set out here.

This assay addresses PtmA2 (as used for analytical size-exclusion chromatography) (Streptomyces platensis CB00739). The experiment in a line: SEC. In general terms: Size exclusion chromatography separates by hydrodynamic size, large species first.

The substance “PtmA2 (as used for analytical size-exclusion chromatography) (enzyme)” came in with a stoichiometry N of 2.
